Experimental data reported in patent US20240261333A1 (published 2024).

Assays:
Assay in all cases: anti-FLAG co-IP from lysate of N-FLAG B3GNT2 cells, mass spectrometry
DNAJA3 = molecular target: T1, DNAJA3 (human, UniProt Q96EY1-2 66-453, limits assumed)
T1 construct: also called NP_001128582.1 (+1)
T1 sequence (looked up): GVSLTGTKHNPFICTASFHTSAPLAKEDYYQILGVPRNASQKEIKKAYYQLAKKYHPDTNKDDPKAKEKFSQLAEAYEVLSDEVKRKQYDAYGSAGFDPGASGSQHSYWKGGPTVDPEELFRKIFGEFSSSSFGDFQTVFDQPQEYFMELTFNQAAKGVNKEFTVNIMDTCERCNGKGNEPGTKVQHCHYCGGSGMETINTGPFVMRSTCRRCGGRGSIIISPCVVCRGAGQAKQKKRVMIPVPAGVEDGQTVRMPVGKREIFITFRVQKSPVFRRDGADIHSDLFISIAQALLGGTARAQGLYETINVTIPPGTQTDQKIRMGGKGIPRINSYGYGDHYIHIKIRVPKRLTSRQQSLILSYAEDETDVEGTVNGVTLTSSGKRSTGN
Procedure: (§1) Cells were plated in 10-cm cell culture dishes and grown to 60-80% confluency. For each condition, two biological replicates were harvested for co-IP. Cells were washed with PBS and 4 mL of lysis buffer (20 mM HEPES, 1% Triton X-100, 150 mM NaCl, 1 mM EDTA, and 10% glycerol) containing protease inhibitor cocktail was added. Cells were scraped and lysate was incubated at 4° C. under rotary agitation for 1 h. Lysate was centrifuged at 14,000×g for 10 min at 4° C. Supernatant was transferred to a new tube and an aliquot was taken as the input. […] For Western blots, 10 μg/mL Chicken Anti-FLAG (Aves labs ET-DY100) and IgY control (R&D Systems AB-101-C) antibodies were biotinylated (Thermo Fisher Scientific 90407) and added to the respective conditions. Lysates with antibodies were incubated at 4° C. under rotary agitation overnight. For each mL of lysate, 50 μL of Pierce Protein A/G Magnetic Beads (Mass spectrometry; Thermo Fisher Scientific 88803) or Pierce Streptavidin Magnetic Beads (Western blot; Thermo Fisher Scientific 88817) was washed twice with lysis buffer. Lysates with antibodies were added to the beads and incubated at 4° C. under rotary agitation for 4 h. Beads were washed with lysis buffer 3 times and resuspended in lysis buffer for storage.
(§2) Magnetic beads were resuspended in 100 mM Tris pH 7.8, reduced, alkylated and digested with trypsin at 37° ° C. overnight. This solution was subjected to solid phase extraction to concentrate the peptides and remove unwanted reagents followed by injection onto a Shimadzu HPLC with fraction collector. Eight fractions were collected and after concentration were injected on a Waters NanoAcquity HPLC equipped with a self-packed Aeris 3 μm C18 analytical column 0.075 mm by 20 cm, (Phenomenex). Peptides were eluted using standard reverse-phase gradients. The effluent from the column was analyzed using a Thermo Orbitrap Elite mass spectrometer (nanospray configuration) operated in a data dependent manner for 54 minutes. The resulting fragmentation spectra were correlated against the known database using Proteome Discover 1.4 (Thermo Fisher Scientific).

H1FX = molecular target: T2, H1FX (human, UniProt Q92522 2-213)
T2 construct: also called NP_006017.1
T2 sequence (Q92522 2-213 limits assumed): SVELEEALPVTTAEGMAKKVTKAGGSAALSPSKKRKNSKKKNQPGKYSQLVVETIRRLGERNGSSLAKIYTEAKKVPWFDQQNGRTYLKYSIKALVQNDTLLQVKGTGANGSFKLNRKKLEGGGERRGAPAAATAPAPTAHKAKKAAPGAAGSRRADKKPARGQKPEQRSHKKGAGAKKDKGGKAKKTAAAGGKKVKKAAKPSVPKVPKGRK
Procedure: as §1, §2

KTN1 = molecular target: T3, KTN1 (human, UniProt Q86UP2 1-1357)
T3 construct: also called NP_001072989.1 (+5)
T3 sequence (looked up): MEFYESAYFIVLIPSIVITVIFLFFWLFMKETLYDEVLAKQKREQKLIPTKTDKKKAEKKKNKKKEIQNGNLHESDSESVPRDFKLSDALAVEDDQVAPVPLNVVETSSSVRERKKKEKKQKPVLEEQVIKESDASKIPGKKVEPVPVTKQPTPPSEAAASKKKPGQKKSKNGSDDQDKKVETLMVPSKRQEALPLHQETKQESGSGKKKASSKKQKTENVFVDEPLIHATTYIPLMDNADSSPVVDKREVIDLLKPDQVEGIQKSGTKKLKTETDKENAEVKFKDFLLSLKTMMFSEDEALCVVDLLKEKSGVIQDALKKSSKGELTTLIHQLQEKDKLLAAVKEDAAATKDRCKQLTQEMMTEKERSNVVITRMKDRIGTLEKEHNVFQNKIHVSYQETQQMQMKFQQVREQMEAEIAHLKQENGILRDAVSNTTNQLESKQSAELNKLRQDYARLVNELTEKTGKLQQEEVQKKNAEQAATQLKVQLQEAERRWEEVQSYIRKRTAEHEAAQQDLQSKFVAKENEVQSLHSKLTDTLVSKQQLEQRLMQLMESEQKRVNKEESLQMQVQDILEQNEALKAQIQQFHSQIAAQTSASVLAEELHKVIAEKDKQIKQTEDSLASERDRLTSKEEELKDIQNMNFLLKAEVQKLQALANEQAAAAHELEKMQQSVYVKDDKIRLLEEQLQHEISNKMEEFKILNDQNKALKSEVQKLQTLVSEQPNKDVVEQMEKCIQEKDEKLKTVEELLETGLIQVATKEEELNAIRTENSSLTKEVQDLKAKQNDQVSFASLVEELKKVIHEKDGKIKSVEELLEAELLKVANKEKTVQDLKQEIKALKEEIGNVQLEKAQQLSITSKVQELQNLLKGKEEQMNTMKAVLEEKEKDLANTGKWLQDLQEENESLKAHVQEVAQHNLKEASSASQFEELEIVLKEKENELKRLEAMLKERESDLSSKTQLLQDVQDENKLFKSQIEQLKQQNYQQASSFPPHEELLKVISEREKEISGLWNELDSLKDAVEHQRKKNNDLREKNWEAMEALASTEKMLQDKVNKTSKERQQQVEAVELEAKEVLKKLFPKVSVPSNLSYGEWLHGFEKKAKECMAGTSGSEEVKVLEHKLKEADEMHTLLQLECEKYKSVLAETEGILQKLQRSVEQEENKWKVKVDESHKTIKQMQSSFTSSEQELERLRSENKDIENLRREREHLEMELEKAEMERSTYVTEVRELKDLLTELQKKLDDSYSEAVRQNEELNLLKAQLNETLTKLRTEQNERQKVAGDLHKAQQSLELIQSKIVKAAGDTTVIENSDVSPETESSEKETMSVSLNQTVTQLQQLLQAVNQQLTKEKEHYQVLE
Procedure: as §1, §2

co-IP mass spectrometry count (DNAJA3): 0
co-IP mass spectrometry count (H1FX): 0
co-IP mass spectrometry count (KTN1): 0
B1: N-terminal FLAG tagged B3GNT2 (enzyme, human, UniProt Q9NY97 1-397, looked up)
chain: MSVGRRRIKLLGILMMANVFIYFIMEVSKSSSQEKNGKGEVIIPKEKFWKISTPPEAYWNREQEKLNRQYNPILSMLTNQTGEAGRLSNISHLNYCEPDLRVTSVVTGFNNLPDRFKDFLLYLRCRNYSLLIDQPDKCAKKPFLLLAIKSLTPHFARRQAIRESWGQESNAGNQTVVRVFLLGQTPPEDNHPDLSDMLKFESEKHQDILMWNYRDTFFNLSLKEVLFLRWVSTSCPDTEFVFKGDDDVFVNTHHILNYLNSLSKTKAKDLFIGDVIHNAGPHRDKKLKYYIPEVVYSGLYPPYAGGGGFLYSGHLALRLYHITDQVHLYPIDDVYTGMCLQKLGLVPEKHKGFRTFDIEEKNKNNICSYVDLMLVHSRKPQEMIDIWSQLQSAHLKC
notes: Bait of the co-IP; pulled down from cell lysate with mouse anti-FLAG antibody; also called N-FLAG B3GNT2; N-term FLAG; not shown: N-terminal FLAG tag
